Assay results from article PMC9987375.

Assays:
[1] = target: cytoplasmic dynein-1 heavy chain, naturally occurring in Vero cells (African green monkey (endogenous in Vero)); experiment: proximity ligation; Vero cells infected with ZIKV MR766 at MOI 1, fixed at 12 and 24 h.p.i.; mouse monoclonal anti-E and rabbit polyclonal anti-NTDyn
[2] = target: cytoplasmic dynein-1 heavy chain, naturally occurring in Vero cells (African green monkey (endogenous in Vero)); experiment: proximity ligation; Vero cells infected with ZIKV MR766 at MOI 1, fixed at 18 h.p.i.; mouse monoclonal anti-E and rabbit polyclonal anti-NTDyn; PLA dots counted in 100 cells

How did the PLA dots per cell (12 and 24 h.p.i.) (PLA dots per cell) [1] turn out when “Zika virus (ZIKV) envelope protein (E), MR766 strain (natural protein)” was run?
The PLA dots per cell (12 and 24 h.p.i.) (PLA dots per cell) was < 1.

And the PLA dots per cell (18 h.p.i.) (PLA dots per cell) [2]?
Its PLA dots per cell (18 h.p.i.) (PLA dots per cell) is > 6.

And the PLA dots per cell (mean, 18 h.p.i.) (PLA dots per cell) [2]?
Its PLA dots per cell (mean, 18 h.p.i.) (PLA dots per cell) is 2.9.
